The source of these data is article PMC7755903 (Nature Communications, 2020).

The labels stand for the following.
B1: wild-type (WT) tetrameric human βI-tryptase (enzyme)
chain: not shown
notes: mature human βI-tryptase, Ile31-Pro275 of Uniprot Q15661 (Ile16-Pro246 in chymotrypsinogen numbering); N-terminus IVGG after enterokinase cleavage; Homotetramer; residues in the results are in chymotrypsinogen numbering; also called βI-tryptase tetramer; tetrameric β-tryptase; source: Trichoplusia ni cells (baculovirus), secreted, purified (Ni-NTA, S200 SEC); zymogen cleaved with enterokinase in …
B2: E104.v2 IgG1 hinge variant G1-TH (antibody, V domains shown)
VH: EVQLVESGPGLVKPSETLSLTCTVSRFSLIGYAITWIRQPPGKGLEWIGGISSAATTFYSSWAKSRVTISRDTSKNQVSLKLSSVTAADTAVYYCARDPRGYGAALDRLDLWGQGTLVTVSS
VL: DIQMTQSPSSLSASVGDRVTITCQSIKSVYNNRLGWYQQKPGKAPKLLIYETSILTSGVPSRFSGSGSGTDFTLTISSLQPEDFATYYCAGGFDRSGDTTFGQGTKVEIK
B3: E104.v2 IgG1 hinge variant G1.G5 (antibody, V domains shown)
VH: B2 VH
VL: B2 VL
B4: E104.v2 IgG1 hinge variant G1-KTH (antibody, V domains shown)
VH: B2 VH
VL: B2 VL
B5: humanized E104.v1 IgG1 (antibody, V domains shown)
VH: B2 VH with R71V, V78F
VL: B2 VL
B6: E104.v2 IgG1 hinge variant G1-H (antibody, V domains shown)
VH: B2 VH
VL: B2 VL
B7: E104.v2 IgG1 hinge variant G1.G5 (antibody, V domains shown)
VH: B2 VH
VL: B2 VL
notes: humanized E104.v2 VH: as the VH of Sm2 (E104.v1, PDB 6VVU heavy chain) with V71R and F78V (Kabat numbering); human IgG1 heavy chain constant region, the CH1 domain up to the upper hinge; engineered upper hinge: DKTHT of the human IgG1 upper hinge replaced by five glycines; human IgG1 heavy chain constant region after the upper hinge (core and lower hinge, CH2, CH3); IgG1 with a flexible upper …
B8: humanized E104.v1 IgG1 (antibody, V domains shown)
VH: B2 VH with R71V, V78F
VL: B2 VL
notes: humanized E104.v1 VH (rabbit E104 CDRs on the human VHIV consensus framework); Kabat numbering; human IgG1 heavy chain constant region, the CH1 domain up to the upper hinge; upper hinge of human IgG1, wild type; human IgG1 heavy chain constant region after the upper hinge (core and lower hinge, CH2, CH3); humanized E104 light chain (rabbit E104 CDRs on the human VLKI consensus framework); IgG1; …
B9: E104.v2 IgG1 hinge variant G1-KTH (antibody, V domains shown)
VH: B2 VH
VL: B2 VL
notes: humanized E104.v2 VH: as the VH of Sm2 (E104.v1, PDB 6VVU heavy chain) with V71R and F78V (Kabat numbering); human IgG1 heavy chain constant region, the CH1 domain up to the upper hinge; human IgG1 heavy chain constant region after the upper hinge (core and lower hinge, CH2, CH3); IgG1 with shortened upper hinge; copies: 2 + 2
B10: E104.v2 IgG1 hinge variant G1 + GG (antibody, V domains shown)
VH: B2 VH
VL: B2 VL
notes: humanized E104.v2 VH: as the VH of Sm2 (E104.v1, PDB 6VVU heavy chain) with V71R and F78V (Kabat numbering); human IgG1 heavy chain constant region, the CH1 domain up to the upper hinge; human IgG1 heavy chain constant region after the upper hinge (core and lower hinge, CH2, CH3); IgG1 with extended upper hinge; copies: 2 + 2
B11: humanized E104.v2 IgG1 (antibody, V domains shown)
VH: B2 VH
VL: B2 VL
notes: humanized E104.v2 VH: as the VH of Sm2 (E104.v1, PDB 6VVU heavy chain) with V71R and F78V (Kabat numbering); human IgG1 heavy chain constant region, the CH1 domain up to the upper hinge; upper hinge of human IgG1, wild type; human IgG1 heavy chain constant region after the upper hinge (core and lower hinge, CH2, CH3); v1 and v2 differ only in the heavy chain; IgG1; also called IgG1.v2; copies: 2 …
B12: E104.v2 IgG1 hinge variant G1-H (antibody, V domains shown)
VH: B2 VH
VL: B2 VL
notes: as for B9
B13: E104.v2 IgG1 hinge variant G1 + (GGS)3 (antibody, V domains shown)
VH: B2 VH
VL: B2 VL
notes: as for B10
B14: E104.v2 IgG1 hinge variant G1 + GGS (antibody, V domains shown)
VH: B2 VH
VL: B2 VL
notes: as for B10
B15: E104.v2 IgG1 hinge variant G1 + G (antibody, V domains shown)
VH: B2 VH
VL: B2 VL
notes: as for B10
B16: humanized E104.v2 IgG4 (antibody, V domains shown)
VH: B2 VH
VL: B2 VL
notes: humanized E104.v2 VH: as the VH of Sm2 (E104.v1, PDB 6VVU heavy chain) with V71R and F78V (Kabat numbering); human IgG4 heavy chain constant region, the CH1 domain up to the upper hinge; upper hinge of human IgG4; human IgG4 heavy chain constant region after the upper hinge (core and lower hinge, CH2, CH3); IgG4 isotype version of E104.v2; copies: 2 + 2

Substitutions are numbered along the chain they refer to. Names may count otherwise. “And” between values parts separate entries of the source, which are not always exact repeats. Equal entries are not always repeated.

The first series concerns the molecule itself. The series is described as follows: crystal structure; E104.v1 Fab with tetrameric βI-tryptase; crystals at 19 °C, 0.1 M Tris pH 8.5, 0.2 M CaCl2, 20% PEG 4000, 4% pentaerythritol ethoxylate; 3.0 Å.
Conditions: not given
What is called stoichiometry N is a count of units in the complex or per binding partner. On to B1, for which the “stoichiometry N” value amounted to 4.

For a further series, the target named is T1, human βI-tryptase monomer (Homo sapiens, UniProt Q15661).
T1 construct: mature wild-type human βI-tryptase, Uniprot Q15661, Ile31-Pro275 (Ile16-Pro246 chymotrypsinogen numbering); also called monomeric βI-tryptase; β1-tryptase; source: Trichoplusia ni cells (baculovirus), secreted, purified (Ni-NTA, S200 SEC)
The series is described as follows: SPR; Biacore T200; anti-tryptase IgG variant captured on a CM5 chip with anti-human IgG (Fc) antibody; threefold dilutions of human βI-tryptase monomer injected at 30 µL/min, 25 °C, 3-min association, 10-min dissociation; 1:1 binding model; representative single sensorgram sets. Particulars: both partners purified. (In general: In SPR one partner is held on a chip, and binding of the other changes the refractive index at the surface.)
T1 sequence (Q15661 31-275): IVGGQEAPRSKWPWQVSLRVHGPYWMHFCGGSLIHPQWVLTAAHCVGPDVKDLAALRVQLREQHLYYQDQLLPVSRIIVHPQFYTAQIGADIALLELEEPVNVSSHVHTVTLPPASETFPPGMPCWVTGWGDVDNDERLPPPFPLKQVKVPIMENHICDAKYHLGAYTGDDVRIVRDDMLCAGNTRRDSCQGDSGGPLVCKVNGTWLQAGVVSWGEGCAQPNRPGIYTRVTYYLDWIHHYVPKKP
As usually defined, the Kd is the equilibrium constant for the complex coming apart. The low end stands for higher affinity, the high end for lower affinity. The molecule B2 came in with a dissociation constant (Kd) of 0.56 nM.
The same measure, in the same setting: the value for B3 was 0.643 nM; that for B4 was 0.522 nM.
B5 displayed a Kd of 0.543 nM.
The molecule B6 registered a Kd of 0.68 nM.

The target in a further series is T2, human βI-tryptase monomer (Homo sapiens, UniProt Q15661).
T2 construct: mature wild-type human βI-tryptase, Uniprot Q15661, Ile31-Pro275 (Ile16-Pro246 in chymotrypsinogen numbering); The SPR methods say only 'human βI-tryptase monomer'; The methods describe the monomeric form as the zymogen, which still carries the N-terminal His6 tag and enterokinase site before Ile16; also called monomeric βI-tryptase; β-tryptase; source: Trichoplusia ni cells (baculovirus, …)
Description: SPR; Biacore T200; antibody captured on a CM5 chip by immobilised mouse anti-human IgG (Fc); threefold dilutions of βI-tryptase monomer injected at 30 µL/min, 25 °C, 3-min association, 10-min dissociation; 1:1 Langmuir fit; n = 2. Particulars: both partners purified.
T2 sequence (Q15661 31-275): as above
Consider B7, for which the Kd was 0.643 nM and 0.493 nM.
As for B8, the Kd was 0.543 nM and 0.521 nM.
B9: the Kd is 0.522 nM and 0.401 nM.
On to B10, for which the Kd is 0.448 nM and 0.422 nM.
B11 yielded a Kd of 0.6 nM.
For the molecule B12, the Kd is 0.68 nM and 0.494 nM.
For B13, the Kd was 0.626 nM and 0.41 nM.
On to B14, for which the Kd was 0.435 nM and 0.502 nM.
Regarding B15, the Kd is 0.538 nM and 0.521 nM.
With B16, the dissociation constant Kd was 0.745 nM and 0.689 nM.
